7 substances from PMC3728347 can be followed below.

The target in one assay is GNMT Y244A mutant (UniProt Q14749). Kind of assay: SEC; size-exclusion chromatography of wild type GNMT and catalytic-centre mutants; data not shown.
For the next assay, the target named is GNMT L210S mutant (UniProt Q14749). Kind of assay: SEC; size-exclusion chromatography on Sephacryl S300 of the folate-site mutants.
The target of the next assay is GNMT D70A mutant (UniProt Q14749). Kind of assay: SEC; size-exclusion chromatography of wild type GNMT and catalytic-centre mutants; data not shown.
A further assay deals with GNMT Y6E mutant (UniProt Q14749). Kind of assay: SEC; size-exclusion chromatography on Sephacryl S300 of the folate-site mutants.
For another assay, the target named is GNMT W30F mutant (UniProt Q14749). The assay can be described thus: SEC; size-exclusion chromatography of wild type GNMT and catalytic-centre mutants; data not shown.
For a further assay, the target named is GNMT M218D mutant (UniProt Q14749). The assay can be described thus: SEC; size-exclusion chromatography on Sephacryl S300 of the folate-site mutants.
Assay [1] has as its target Glycine N-methyltransferase, wild type (UniProt Q14749). The assay can be described thus: SEC; size-exclusion chromatography of wild type GNMT and catalytic-centre mutants; data not shown.

For “GNMT Y244A mutant (from UniProt Q14749 1-295) (enzyme)”, in the assay with GNMT Y244A mutant, the stoichiometry N was determined as 4.

In the assay with GNMT L210S mutant, “GNMT L210S mutant (from UniProt Q14749 1-295) (enzyme)” registered a percent of the protein as dimer of 50%, a percent of the protein as monomer of 10% and a percent of the protein as tetramer of 40%.

On to “GNMT D70A mutant (from UniProt Q14749 1-295) (enzyme)”, for which the stoichiometry N with GNMT D70A mutant is 4.

As to “GNMT Y6E mutant (from UniProt Q14749 1-295) (enzyme)”, the stoichiometry N with GNMT Y6E mutant stood at 4.

The substance “GNMT W30F mutant (from UniProt Q14749 1-295) (enzyme)” came in with a stoichiometry N with GNMT W30F mutant of 4.

Substance “GNMT M218D mutant (from UniProt Q14749 1-295) (enzyme)” showed a stoichiometry N with GNMT M218D mutant of 4.

As for “Glycine N-methyltransferase, wild type (from UniProt Q14749 1-295) (enzyme)”, in assay [1], the stoichiometry N was determined as 4.
